Where no end group is shown, it is not given here.
B1: Phage-574 (peptide)
peptide: YCDGHLPEYLWKCL
modifications: cysteine pairing not given here; also: displayed on phage by fusion to pIII, pIII and linker sequence not given here
B2: Phage-567 (peptide)
peptide: YCEGHLPIYLEKCM
B3: Phage-570 (peptide)
peptide: YCDGHSTEYLWKCL
modifications: cysteine pairing not given here; also: displayed on phage by fusion to pIII, pIII and linker sequence not given here
B4: Phage-568 (peptide)
peptide: YCEGHTPEYMQKCL
B5: Phage-569 (peptide)
peptide: YCDGHLPQYMMKCL
modifications: cysteine pairing not given here; also: displayed on phage by fusion to pIII, pIII and linker sequence not given here
B6: Phage-573 (peptide)
peptide: YCEGHSQEYMSKCL
modifications: cysteine pairing not given here; also: displayed on phage by fusion to pIII, pIII and linker sequence not given here
B7: Phage-578 (peptide)
peptide: YCEGHSPEYMEKCL
modifications: cysteine pairing not given here; also: displayed on phage by fusion to pIII, pIII and linker sequence not given here
B8: Phage-572 (peptide)
peptide: YCDGHAAEYMAKCL
modifications: cysteine pairing not given here; also: displayed on phage by fusion to pIII, pIII and linker sequence not given here
B9: Phage-571 (peptide)
peptide: YCEGHLGIYMYKCL
modifications: cysteine pairing not given here; also: displayed on phage by fusion to pIII, pIII and linker sequence not given here
B10: Phage-575 (peptide)
peptide: YCEGHLPMYMEKCL
modifications: cysteine pairing not given here; also: displayed on phage by fusion to pIII, pIII and linker sequence not given here
B11: Phage-576 (peptide)
peptide: YCDGHLSEYMEKCL
modifications: cysteine pairing not given here; also: displayed on phage by fusion to pIII, pIII and linker sequence not given here
B12: Phage-577 (peptide)
peptide: YCEGHSPLYMWKCL
modifications: cysteine pairing not given here; also: displayed on phage by fusion to pIII, pIII and linker sequence not given here
B13: Phage-566 (peptide)
peptide: YCDGHAPQYMQKCL
B14: Phage-583 (peptide)
peptide: YCQGHLPIYMEKCL
B15: Phage-587 (peptide)
peptide: YCEGHLPEYMQKCM
B16: Phage-580 (peptide)
peptide: YCEGHAWEYMAKCL
B17: Phage-586 (peptide)
peptide: YCEGHAPMYMWKCL
B18: Phage-579 (peptide)
peptide: YCAGHLPEYMEKCL
B19: Phage-581 (peptide)
peptide: YCQGHLPEYMNKCL
B20: Phage-585 (peptide)
peptide: YCDGHLPQYMNKCL
B21: Phage-582 (peptide)
peptide: YCDGHSQEYMAKCL
B22: Phage-588 (peptide)
peptide: YCDGHSAEYMAKCL
B23: Phage-590 (peptide)
peptide: YCDGHSMEYMSKCL
B24: Phage-589 (peptide)
peptide: YCEGHSPEYMYKCL
B25: Phage-591 (peptide)
peptide: YCEGHLPMYMDKCL
B26: Phage-584 (peptide)
peptide: YCDGHLPLYLAKCL
B27: Phage-593 (peptide)
peptide: YCEGHSPQYMWKCL
notes: Tested as clonal phage supernatant
B28: Phage-594 (peptide)
peptide: YCEGHAAEYMTKCL
notes: as for B27
B29: Phage-592 (peptide)
peptide: YCDGHRGEYLQKCL
notes: as for B27

target: T1, Anti-CD28 Fab (SEQ ID NOs: 696, 697); test: phage binding ELISA on captured anti-CD28 Fab; competitor: CD28 antigen
T1 construct: In the phage ELISA the Fab was biotinylated and captured on neutravidin coated plates
T1 sequence (VH, as listed by the source, chain 1 of 2): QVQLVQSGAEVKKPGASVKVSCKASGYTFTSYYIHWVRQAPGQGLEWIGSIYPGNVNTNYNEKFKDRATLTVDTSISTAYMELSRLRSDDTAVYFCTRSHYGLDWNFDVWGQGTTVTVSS
T1 sequence (VL, as listed by the source, chain 2 of 2): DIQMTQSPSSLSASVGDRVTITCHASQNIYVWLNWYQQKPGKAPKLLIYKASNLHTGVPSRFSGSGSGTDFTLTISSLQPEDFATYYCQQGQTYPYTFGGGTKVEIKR
Experimental: (§1) After panning, phage infected bacteria were plated out and colonies picked into 96 well blocks. Clonal phage was then amplified and separated from bacterial cells via centrifugation.
(§2) Clonal phage were harvested as crude supematants and screened via standard ELISAs. […] Prior to the addition of clonal phage, wells were incubated with blocking buffer and CD28 antigen or blocking buffer alone. Without washing or aspirating, clonal phage supematants were then added to the wells and incubated for a short time. Wells were then washed followed by detection of bound phage using a horse radish conjugated anti-M13 antibody. Clonal phage of interest were then sent for sequence analysis.

| Binder | Anti-CD28 Fab signal in the presence of CD28 |
| --- | --- |
| B1 | 0.13 |
| B2 | 0.1 |
| B3 | 0.06 |
| B4 | 0.07 |
| B5 | 0.14 |
| B6 | 0.07 |
| B7 | 0.07 |
| B8 | 0.13 |
| B9 | 0.14 |
| B10 | 0.1 |
| B11 | 0.08 |
| B12 | 0.06 |
| B13 | 0.11 |

target: Anti-CD28 Fab (SEQ ID NOs: 696, 697); test: phage binding ELISA; captured anti-CD28 Fab pre-incubated with CD28 antigen as competitor, anti-M13 HRP
Target sequence in this assay (VH, as listed by the source, chain 1 of 2): as the sequence (VH, as listed by the source, chain 1 of 2) above
Target sequence in this assay (VL, as listed by the source, chain 2 of 2): as the sequence (VL, as listed by the source, chain 2 of 2) above
Experimental: as §1, §2

| Binder | Anti-CD28 Fab signal in the presence of CD28 |
| --- | --- |
| B14 | 0.09 |
| B15 | 0.08 |
| B16 | 0.07 |
| B17 | 0.08 |
| B18 | 0.12 |
| B19 | 0.08 |
| B20 | 0.1 |
| B21 | 0.08 |
| B22 | 0.07 |
| B23 | 0.09 |
| B24 | 0.1 |
| B25 | 0.07 |
| B26 | 0.09 |

target: T2, Anti-CD28 Fab (SEQ ID NOs: 696, 697); test: phage ELISA; plate-bound anti-CD28 Fab pre-incubated with CD28 antigen as competitor, anti-M13 HRP detection
T2 construct: In the phage ELISA the Fab was biotinylated and captured on neutravidin coated plates
T2 sequence (VH, as listed by the source, chain 1 of 2): as the sequence (VH, as listed by the source, chain 1 of 2) above
T2 sequence (VL, as listed by the source, chain 2 of 2): as the sequence (VL, as listed by the source, chain 2 of 2) above
Experimental: as §1, §2

| Binder | Phage binding ELISA, Anti-CD28 Fab signal in the presence of CD28 |
| --- | --- |
| B27 | 0.12 |
| B28 | 0.08 |
| B29 | 0.09 |

target: T1, Anti-CD28 Fab (SEQ ID NOs: 696, 697); test: phage binding ELISA; biotinylated anti-CD28 Fab on neutravidin plate, bound phage detected with anti-M13 HRP;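 also: crude supernatants of clonal phage screened, wells pretreated with blocking buffer with or without CD28 antigen before brief phage incubation, washed, then bound phage detected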
Experimental: as §1, §2

| Binder | Anti-CD28 Fab signal |
| --- | --- |
| B1 | 2.26 |
| B2 | 2.27 |
| B3 | 2.26 |
| B4 | 2.27 |
| B5 | 2.27 |
| B6 | 2.26 |
| B7 | 2.24 |
| B8 | 2.26 |
| B9 | 2.26 |
| B10 | 2.25 |
| B11 | 2.25 |
| B12 | 2.25 |
| B13 | 2.28 |

target: Anti-CD28 Fab (SEQ ID NOs: 696, 697); test: phage binding ELISA; biotinylated anti-CD28 Fab on neutravidin plate, clonal phage supernatant, anti-M13 HRP;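 also: crude clonal phage supernatants screened after wells were preincubated either with CD28 antigen in blocking buffer or with blocking buffer only, phage added without washing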
Target sequence in this assay (VH, as listed by the source, chain 1 of 2): as the sequence (VH, as listed by the source, chain 1 of 2) above
Target sequence in this assay (VL, as listed by the source, chain 2 of 2): as the sequence (VL, as listed by the source, chain 2 of 2) above
Experimental: as §1, §2

| Binder | Anti-CD28 Fab (SEQ ID NOs: 696, 697) signal |
| --- | --- |
| B14 | 2.24 |
| B15 | 2.23 |
| B16 | 2.24 |
| B17 | 2.23 |
| B18 | 2.24 |
| B19 | 2.24 |
| B20 | 2.23 |
| B21 | 2.24 |
| B22 | 2.23 |
| B23 | 2.22 |
| B24 | 2.23 |
| B25 | 2.22 |
| B26 | 2.23 |

target: T2, Anti-CD28 Fab (SEQ ID NOs: 696, 697); test: phage ELISA; biotinylated anti-CD28 Fab on neutravidin plate, clonal phage supernatant, anti-M13 HRP detection;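 also: crude supernatants of single phage clones picked after panning were screened for binding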

| Binder | Phage binding ELISA, Anti-CD28 Fab signal |
| --- | --- |
| B27 | 2.22 |
| B28 | 2.22 |
| B29 | 2.22 |
